The source of these data is patent publication US11278600B2, “Human alpha-galactosidase variants” (Codexis, Inc., priority 2014, dated 2022).

Holding throughout (assay type): biochemical
Data set [1] in a line: HTP-analysis of yeast culture supernatants, no challenge (MUGal hydrolysis). The conditions noted are these: activity of the variant/activity of WT GLA (SEQ ID NO: 5), yeast supernatant. Put shortly:
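Activity read as 4-methylumbelliferyl α-D-galactopyranoside hydrolysis: fluorescence (355/448 nm) after sodium carbonate stop, following 30-180 min at 37° C with 2 mM MUGal stock at pH 4.6–4.8. Enzyme source is unchallenged culture supernatant of INVSc1 yeast expressing GLA variants, grown 66-84 h at 30° C.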

The nature of data set [2]: HTP-analysis of supernatants pretreated with base (MUGal hydrolysis). The conditions noted are these: challenge at pH 7.1; activity of the variant/activity of WT GLA (SEQ ID NO: 5); yeast supernatant. Put shortly:
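Supernatants from INVSc1 yeast expressing GLA variants (SD-Ura, 66-84 h, 30° C) were mixed with McIlvaine buffer pH 7.0-8.2 or 200 mM sodium bicarbonate pH 9.1-9.7 and held 1-18 h at 37° C. Residual activity was then measured on MUGal at pH 4.8/4.3, 37° C, 30-180 min, by fluorescence (Ex 355/Em 448 nm).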

Data set [3] is described as follows: HTP-analysis of supernatants pretreated with acid (MUGal hydrolysis). The conditions noted are these: challenge at pH 4.2; activity of the variant/activity of WT GLA (SEQ ID NO: 5); yeast supernatant. Put shortly:
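Supernatants from INVSc1 yeast secreting GLA variants were challenged at 37° C. for 1-3 h in McIlvaine buffer at pH 3.3-4.3. Residual activity was then measured on 4 mM MUGal substrate stock at pH 4.8 with citrate buffer pH 4.3, over 30-180 min at 37° C. Reactions were quenched with sodium carbonate and read by fluorescence (Ex 355/Em 448 nm).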

B1: 63 (protein)
chain: LDNGLARTPTMGWLHWERFMCNLDCQEEPDSCISEKLFMEMAELMVSEGWKDAGYEYLCIDDCWMAPQRDSEGRLQADPQRFPHGIRQLANYVHSKGLKLGIYADVGNKTCAGFPGSFGYYDIDAQTFADWGVDLLKFDGCYCDSLENLADGYKAMSLALNRTGRSIVYSCEWPLYMWPFQKPNYTEIRQYCNHWRNFADIDDSWKSIKSILDWTSFNQERIVDVAGPGGWNDPDMLVIGNFGLSWNQQVTQMALWAIMAAPLFMSNDLRHISPQAKALLQDKDVIAINQDPLGKQGYQLRQGDNFEVWERPLSGLAWAVAMINRQEIGGPRSYTIAVASLGKGVACNPACFITQLLPVKRKLGFYEWTSRLRSHINPTGTVLLQLENTMQMSKDLLL
modifications: Synthetic Polypeptide sequence of Variant No. 63 of mature Human GLA
Consider B1, for which the “Relative Activity of GLA Variants After No Challenge (NC)” value in data set [1] was “+ (+ = 0.5 to 1.5 relative activity over WT GLA (SEQ ID NO: 5))”. Further, the “Relative Activity of GLA Variants After Challenge at pH 7.1” value (shortened to “Relative Activity … at pH 7.1”) in data set [2] is reported as “++ (++ = >1.5 to 2.5 relative activity over WT GLA (SEQ ID NO: 5))”. In addition, the “Relative Activity of GLA Variants After Challenge at pH 4.2” value (“Relative Activity … at pH 4.2” below) in data set [3] is on record as “+ (+ = 0.5 to 1.5 relative activity over WT GLA (SEQ ID NO: 5))”.

B2: 69 (protein)
chain: LDNGLARTPTMGWLHWERFMCNLDCQEEPDSCISEKLFMEMAELMVSEGWKDAGYEYLCIDDCWMAPQRDSEGRLQADPQRFPHGIRQLANYVHSKGLKLGLYADVGNKTCAGFPGSFGYYDIDAQTFADWGVDLLKFDGCYCDSLENLADGYKHMSLALNRTGRSIVYSCEWPLYMWPFQKPNYTEIRQYCNHWRNFADIDDSWKSIKSILDWTSFNQERIVDVAGPGGWNDPDMLVIGNFGLSWNQQVTQMALWAIMAAPLFMSNDLRHISPQAKALLQDKDVIAINQDPLGKQGYQLRQGDNFEVWERPLSGLAWAVAMINRQEIGGPRSYTIAVASLGKGVACNPACFITQLLPVKRKLGFYEWTSRLRSHINPTGTVLLQLENTMQMSKDLLL
modifications: Synthetic Polypeptide sequence of Variant No. 69 of mature Human GLA
Regarding B2, in data set [1], the “Relative Activity of GLA Variants After No Challenge (NC)” value is “+ (+ = 0.5 to 1.5 relative activity over WT GLA (SEQ ID NO: 5))”. Further, the “Relative Activity … at pH 7.1” value in data set [2] was “+ (+ = 0.5 to 1.5 relative activity over WT GLA (SEQ ID NO: 5))”. Also, in data set [3], the “Relative Activity … at pH 4.2” value is given as “+ (+ = 0.5 to 1.5 relative activity over WT GLA (SEQ ID NO: 5))”.

B3: 65 (protein)
chain: LDNGLARTPTMGWLHWERFMCNLDCQEEPDSCISEKLFMEMAELMVSEGWKDAGYEYLCIDDCWMAPQRDSEGRLQADPQRFPHGIRQLANYVHSKGLKLGIYADVGNKTCAGFPGSFGYYDIDAQTFADWGVDLLKFDGCYCDSLENLADGYKRMSLALNRTGRSIVYSCEWPLYMWPFQKPNYTEIRQYCNHWRNFADIDDSWKSIKSILDWTSFNQERIVDVAGPGGWNDPDMLVIGNFGLSWNQQVTQMALWAIMAAPLFMSNDLRHISPQAKALLQDKDVIAINQDPLGKQGYQLRQGDNFEVWERPLSGLAWAVAMINRQEIGGPRSYTIAVASLGKGVACNPACFITQLLPVKRKLGFYEWTSRLRSHINPTGTVLLQLENTMQMSKDLLL
modifications: Synthetic Polypeptide sequence of Variant No. 65 of mature Human GLA
B3: the “Relative Activity of GLA Variants After No Challenge (NC)” value in data set [1] was “+ (+ = 0.5 to 1.5 relative activity over WT GLA (SEQ ID NO: 5))”. For the same molecule, the “Relative Activity … at pH 7.1” value in data set [2] is recorded as “+ (+ = 0.5 to 1.5 relative activity over WT GLA (SEQ ID NO: 5))”. Besides, the “Relative Activity … at pH 4.2” value in data set [3] is “+ (+ = 0.5 to 1.5 relative activity over WT GLA (SEQ ID NO: 5))”.

B4: 68 (protein)
chain: LDNGLARTPTMGWLHWERFMCNLDCQEEPDSCISEKLFMEMAELMVSEGWKDAGYEYLCIDDCWMAPQRDSEGRLQADPQRFPSGIRQLANYVHSKGLKLGIYADVGNKTCAGFPGSFGYYDIDAQTFADWGVDLLKFDGCYCDSLENLADGYKHMSLALNRTGRSIVYSCEWPLYMWPFQKPNYTEIRQYCNHWRNFADIDDSWKSIKSILDWTSFNQERIVDVAGPGGWNDPDMLVIGNFGLSWNQQVTQMALWAIMAAPLFMSNDLRHISPQAKALLQDKDVIAINQDPLGKQGYQLRQGDNFEVWERPLSGLAWAVAMINRQEIGGPRSYTIAVASLGKGVACNPACFITQLLPVKRKLGFYEWTSRLRSHINPTGTVLLQLENTMQMSKDLLL
modifications: Synthetic Polypeptide sequence of Variant No. 68 of mature Human GLA
B4: in data set [1], the “Relative Activity of GLA Variants After No Challenge (NC)” value was “+ (+ = 0.5 to 1.5 relative activity over WT GLA (SEQ ID NO: 5))”. The “Relative Activity … at pH 7.1” value in data set [2] is “+ (+ = 0.5 to 1.5 relative activity over WT GLA (SEQ ID NO: 5))”. Also, in data set [3], the “Relative Activity … at pH 4.2” value was “++ (++ = >1.5 to 2.5 relative activity over WT GLA (SEQ ID NO: 5))”.

B5: 67 (protein)
chain: LDNGLARTPTMGWLHWERFMCNLDCQEEPDSCISEKLFMEMAELMVSEGWKDAGYEYLCIDDCWMAPQRDSEGRLQADPQRFPHGIRQLANYVHSKGLKLGIYADVGNKTCAGFPGSFGYYDIDAQTFADWGVDLLKFDGCYCDSLENLADGYKEMSLALNRTGRSIVYSCEWPLYMWPFQKPNYTEIRQYCNHWRNFADIDDSWKSIKSILDWTSFNQERIVDVAGPGGWNDPDMLVIGNFGLSWNQQVTQMALWAIMAAPLFMSNDLRHISPQAKALLQDKDVIAINQDPLGKQGYQLRQGDNFEVWERPLSGLAWAVAMINRQEIGGPRSYTIAVASLGKGVACNPACFITQLLPVKRKLGFYEWTSRLRSHINPTGTVLLQLENTMQMSKDLLL
modifications: Synthetic Polypeptide sequence of Variant No. 67 of mature Human GLA
Turning to B5, the “Relative Activity of GLA Variants After No Challenge (NC)” value in data set [1] is on record as “++ (++ = >1.5 to 2.5 relative activity over WT GLA (SEQ ID NO: 5))”. In data set [2], the “Relative Activity … at pH 7.1” value is “++ (++ = >1.5 to 2.5 relative activity over WT GLA (SEQ ID NO: 5))”. In addition, the “Relative Activity … at pH 4.2” value in data set [3] was “+ (+ = 0.5 to 1.5 relative activity over WT GLA (SEQ ID NO: 5))”.

B6: 66 (protein)
chain: LDNGLARTPTMGWLHWERFMCNLDCQEEPDSCISEKLFMEMAELMVSEGWKDAGYEYLCIDDCWMAPQRDSEGRLQADPQRFPHGIRQLANYVHSKGLKLGIYADVGNKTCAGFPGSFGYYDIDAQTFADWGVDLLKFDGCYCDSLENLADGYKTMSLALNRTGRSIVYSCEWPLYMWPFQKPNYTEIRQYCNHWRNFADIDDSWKSIKSILDWTSFNQERIVDVAGPGGWNDPDMLVIGNFGLSWNQQVTQMALWAIMAAPLFMSNDLRHISPQAKALLQDKDVIAINQDPLGKQGYQLRQGDNFEVWERPLSGLAWAVAMINRQEIGGPRSYTIAVASLGKGVACNPACFITQLLPVKRKLGFYEWTSRLRSHINPTGTVLLQLENTMQMSKDLLL
modifications: Synthetic Polypeptide sequence of Variant No. 66 of mature Human GLA
Regarding B6, the “Relative Activity of GLA Variants After No Challenge (NC)” value in data set [1] is “+ (+ = 0.5 to 1.5 relative activity over WT GLA (SEQ ID NO: 5))”. For the same molecule, in data set [2], the “Relative Activity … at pH 7.1” value was “+ (+ = 0.5 to 1.5 relative activity over WT GLA (SEQ ID NO: 5))”. In addition, in data set [3], the “Relative Activity … at pH 4.2” value is “+ (+ = 0.5 to 1.5 relative activity over WT GLA (SEQ ID NO: 5))”.

B7: 64 (protein)
chain: LDNGLARTPTMGWLHWERFMCNLDCQEEPDSCISEKLFMEMAELMVSEGWKDAGYEYLCIDDCWMAPQRDSEGRLQADPQRFPHGIRQLANYVHSKGLKLGIYADVGNKTCAGFPGSFGYYDIDAQTFADWGVDLLKFDGCYCDSLENLADGYKLMSLALNRTGRSIVYSCEWPLYMWPFQKPNYTEIRQYCNHWRNFADIDDSWKSIKSILDWTSFNQERIVDVAGPGGWNDPDMLVIGNFGLSWNQQVTQMALWAIMAAPLFMSNDLRHISPQAKALLQDKDVIAINQDPLGKQGYQLRQGDNFEVWERPLSGLAWAVAMINRQEIGGPRSYTIAVASLGKGVACNPACFITQLLPVKRKLGFYEWTSRLRSHINPTGTVLLQLENTMQMSKDLLL
modifications: Synthetic Polypeptide sequence of Variant No. 64 of mature Human GLA
As for B7, in data set [1], the “Relative Activity of GLA Variants After No Challenge (NC)” value was “+ (+ = 0.5 to 1.5 relative activity over WT GLA (SEQ ID NO: 5))”. In addition, in data set [2], the “Relative Activity … at pH 7.1” value is recorded as “++ (++ = >1.5 to 2.5 relative activity over WT GLA (SEQ ID NO: 5))”. In data set [3], the “Relative Activity … at pH 4.2” value is “+ (+ = 0.5 to 1.5 relative activity over WT GLA (SEQ ID NO: 5))”.

B8: 70 (protein)
chain: LDNGLARTPTMGWLHWERFMCNLDCQEEPDSCISEKLFMEMAELMVSEGWKDAGYEYLCIDDCWMAPQRDSEGRLQADPQRFPHGIRQLANYVHSKGLKLGLYADVGNKTCAGFPGSFGYYDIDAQTFADWGVDLLKFDGCYCDSLENLADGYKHMSLALNRTGRSIVYSCEWPLYMWPFQKPNYTEIRQYCNHWRNFADIDDSWKSIKSILDWTSFNQERIVDVAGPGGWNDPDMLVIGNFGLSWNQQVTQMALWAIMAAPLFMSNDLRHISPQAKALLQDKDVIAINQDPLGKQGYQLRQGDNFEVWERPLSGLAWAVAMINRQEIGGPRSYTIAVASLGKGVACNPACFITQLLPVKRKLGFYEWTSRLRSHINPTGTVLLQLENTMQMSVDLLL
modifications: Synthetic Polypeptide sequence of Variant No. 70 of mature Human GLA
B8: in data set [1], the “Relative Activity of GLA Variants After No Challenge (NC)” value is given as “+ (+ = 0.5 to 1.5 relative activity over WT GLA (SEQ ID NO: 5))”. Besides, in data set [2], the “Relative Activity … at pH 7.1” value was “+ (+ = 0.5 to 1.5 relative activity over WT GLA (SEQ ID NO: 5))”. In addition, in data set [3], the “Relative Activity … at pH 4.2” value was “+ (+ = 0.5 to 1.5 relative activity over WT GLA (SEQ ID NO: 5))”.
